The text below walks through data of PMC8413462.

This series addresses T1, Snu13 (Saccharomyces cerevisiae) (UniProt P39990).
T1 sequence: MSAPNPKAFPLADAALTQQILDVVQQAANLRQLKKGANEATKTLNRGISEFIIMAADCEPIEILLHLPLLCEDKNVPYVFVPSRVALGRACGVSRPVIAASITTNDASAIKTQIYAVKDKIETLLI
The series can be described thus: EMSA. Particulars: EMSA: annealed in 10 mM Tris-HCl, 100 mM NaCl, 1 mM EDTA, pH 7.5; 4 C, 10% native PAGE; 10 pmol Cy5-RNA (~2 uM) or 0.5 nmol unlabeled RNA. RNP: 20 mM Na …. For orientation: In EMSA bound probe runs differently from free probe, usually more slowly.

Consider snR41-kl1, for which the Kd – broadly, a measure of binding affinity in units of concentration – was above 10 µM.
